Reference: publication PMC3618968 (The Journal of neuroscience : the official journal of the …, 2013)

Molecular target: mouse PCDH15 EC1+2 (wild type) (mouse, UniProt Q99PJ1 27-259)
Experiment: ITC

binding result: binds
B1: mouse CDH23 EC1+2 (domain or fragment)
chain: QVNRLPFFTNHFFDTYLLISEDTPVGSSVTQLLARDMDNDPLVFGVSGEEASRFFAVEPDTGVVWLRQPLDRETKSEFTVEFSVSDHQGVITRKVNIQVGDVNDNAPTFHNQPYSVRIPENTPVGTPIFIVNATDPDLGAGGSVLYSFQPPSPFFAIDSARGIVTVIQELDYEVTQAYQLTVNATDQDKTRPLSTLANLAIIITD
